The subject of this data set is MS2 coat protein. Put plainly: apparent KD of MS2 coat protein; designed switch direction (-1 OFF switch, 1 ON switch): 1; higher = weaker reporter binding. A digest of the protocol:
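Normalised cluster fluorescence was curve-fitted, and each design's median over clusters is its apparent KD. Before this, SNAP-549-labelled MS2 coat protein was titrated from 0.7 or 1.5 nM, doubling to 3 µM, over RNA switches transcribed on Illumina chips by stalled E. coli RNA polymerase. Titrations had no input, 200 uM small-molecule ligand, or an oligonucleotide input, and steps lasted 0.8–1.5 h (lowest) to 10–20 min (highest).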

[1] abbreviates: input ligand: microRNA oligo, concentration not stated.
Where [2] appears, read: Eterna round: R95, input ligand: FMN 200 uM.
[3] abbreviates: Eterna round: R95, input ligand: microRNA oligo, concentration not stated.
Setting [4] is: Eterna round: R95, input ligand: none.

Consider “GGUAGGUUACUACCAAACAUGAGGAUCACCCAUGUAAAUGGGAAGGAUAUGGUACCUAUUUGGUACCAGAAGGUCCAAAUAAUU [Mat - Same State NG 3 - JL Mod - D95] (Eterna round: R96, puzzle: Same State NG 3)”, for which the “apparent KD of MS2 coat protein” value was 0.18 µM (input ligand: FMN 200 uM), 0.327 µM under setting [1] and 1.41 µM (input ligand: none).

Turning to “GGUAGGUUACUACCAAACAUGAGGAUCACCCAUGUAAGUGGGAAGGAUAUGGUACCUAAAAGGUACCAGAAGGUCCAUAUAGUU [Mat - Same State NG 3 - JL Mod - D99] (Eterna round: R96, puzzle: Same State NG 3)”, the “apparent KD of MS2 coat protein” value by setting is: (input ligand: FMN 200 uM) 0.202 µM; under setting [1], 0.228 µM; (input ligand: none) 0.711 µM.

Take “GGUAGGUUACUACCAACACAUGAGGAUCACCCAUGUUAGUGGGAGGAUAUGGUACCUAUUUGGUACCAGAAGGCCUUGUUAAUU [Fiskers NG3ss - 14] (Eterna round: R96, puzzle: Same State NG 3)”: the “apparent KD of MS2 coat protein” value by setting is: (input ligand: FMN 200 uM) 0.0437 µM; under setting [1], 0.0628 µM; (input ligand: none) 0.0876 µM.

For “GGUAGGUUACUACCAAUACAUGAGGAUCACCCAUGUUGUCAUGAGGAUAUGGUACCUAUUUGGUACCAGAAGGCAUGUAUAAUU [Fiskers NG3ss - 20] (Eterna round: R96, puzzle: Same State NG 3)”, the “apparent KD of MS2 coat protein” value (input ligand: FMN 200 uM) was found to be 0.0496 µM, the “apparent KD of MS2 coat protein” value under setting [1] is 0.0595 µM and the “apparent KD of MS2 coat protein” value (input ligand: none) was found to be 0.062 µM.

For “GGUAGGUUACUACCAAUCACAUGAGGAUCACCCAUGUUGUGGGAGGAUAUGGUACCUAUUUGGUACCAGAAGGCCUUAUUAAUU [Fiskers NG3ss - 11] (Eterna round: R96, puzzle: Same State NG 3)”, the “apparent KD of MS2 coat protein” value stood at 0.0748 µM (input ligand: FMN 200 uM), 0.0556 µM under setting [1] and 0.0852 µM (input ligand: none).

As for “GGUAUUAACACAGGAUAUGCUUACGAAACGUAAGCAGAAGGGUGAACAUGAGGAUCACCCAUGUAUGUACCAGGGCGUGAGCCC [JL SSNG1 1.73] (Eterna round: R96, puzzle: Same State NG 1)”, the “apparent KD of MS2 coat protein” value is, setting by setting: (input ligand: FMN 200 uM) 0.137 µM; under setting [1], 0.51 µM; (input ligand: none) 1.04 µM.

Turning to “GGUCCAGCCUGAGCUGGACAAAAGCAUGUACAUGAGGAUCACCCAUGUCAUGUACAAGCUUUUUGCUCGUCUUAAAG [Mat - hsa-mir-208a - 85] (puzzle: Sensor for hsa-mir-208a)”, the “apparent KD of MS2 coat protein” value under setting [2] was 0.195 µM, the “apparent KD of MS2 coat protein” value under setting [3] amounted to 0.0181 µM and the “apparent KD of MS2 coat protein” value under setting [4] turned out to be 0.367 µM.

For “GGUCCAGCCUGAGCUGGACAAAAGCAUGUACAUGAGGAUCACCCAUGUUCAUGUACAAGCUUUUUGCUCGUCUUAGG [salish99_208a_r3_070] (puzzle: Sensor for hsa-mir-208a)”, the “apparent KD of MS2 coat protein” value under setting [2] is 0.602 µM, the “apparent KD of MS2 coat protein” value under setting [3] was found to be 0.0198 µM and the “apparent KD of MS2 coat protein” value under setting [4] is 0.401 µM.

For “GGUCCAGCCUGAGCUGGACUACAGCAUGUACAUGAGGAUCACCCAUGUCAUGUACAAGAAUGUUGUUUGUCUUAAAA [Sensorship 8 - Jieux - Sensor for hsa-mir-208a] (puzzle: Sensor for hsa-mir-208a)”, the “apparent KD of MS2 coat protein” value by setting is: under setting [2], 0.0881 µM; under setting [3], 0.0643 µM; under setting [4], 0.118 µM.

With “GGUCCAUCAUGAGGAUAUGGCACCUUAUUGGUGCCAGAAGGCAUGUCUAUAGACAUGAGGAUCACCCAUGUUAUAAAUUGGACC [Eli NG1ss - 92] (Eterna round: R96, puzzle: Same State NG 1)”, the “apparent KD of MS2 coat protein” value is, setting by setting: (input ligand: FMN 200 uM) 0.02 µM; under setting [1], 0.0986 µM; (input ligand: none) 0.111 µM.

Turning to “GGUCGGACUCACAUGAGGAUCACCCAUGUUGGCGAAAGCCGGCAGGAUAUCUGUCCGAAAAGGUCAGAGAAGGGCUAACCGACC [Fiskers NG3ss - 60] (Eterna round: R96, puzzle: Same State NG 3)”, the “apparent KD of MS2 coat protein” value came to 0.0657 µM (input ligand: FMN 200 uM), 0.186 µM under setting [1] and 0.188 µM (input ligand: none).

Take “GGUCGGACUCACAUGAGGAUCACCCAUGUUGGCGAAAGCCGGCAGGAUAUCUGUCCGAAAAGGUCAGAGAAGGGUCAACCGACC [Fiskers NG3ss - 59] (Eterna round: R96, puzzle: Same State NG 3)”: the “apparent KD of MS2 coat protein” value by setting is: (input ligand: FMN 200 uM) 0.322 µM; under setting [1], 0.0824 µM; (input ligand: none) 0.267 µM.

In the case of “GGUGCAAUUAACGCCUACAUGAGGAUCACCCAUGUAUGUAGGCAGGAUAUCGUUUGCUUUGCAAACGAGAAGGGCUAUAGUACC [JL SSNG3 1.15] (Eterna round: R96, puzzle: Same State NG 3)”, the “apparent KD of MS2 coat protein” value was 0.0544 µM (input ligand: FMN 200 uM), 0.13 µM under setting [1] and 0.157 µM (input ligand: none).

As to “GGUGCCAAUAAAGCCUACAUGAGGAUCACCCAUGUAUGUAGGUAGGAUAUCGUUUGCAAAGCAAACGAGAAGGGCCUAGGCACC [Mat - Same State NG 3 - JL Mod - D58] (Eterna round: R96, puzzle: Same State NG 3)”, the “apparent KD of MS2 coat protein” value runs as follows: (input ligand: FMN 200 uM) 0.027 µM; under setting [1], 0.0437 µM; (input ligand: none) 0.0531 µM.

On to “GGUGGGUUACUACCCACACAUGAGGAUCACCCAUGUAUUGGGAAGGAUAUGGUACCUAUUUGGUACCAGAAGGUCCUGAUGGUG [SS-NG3-LRO15] (Eterna round: R96, puzzle: Same State NG 3)”, for which the “apparent KD of MS2 coat protein” value (input ligand: FMN 200 uM) stood at 1.28 µM, the “apparent KD of MS2 coat protein” value under setting [1] came to 0.312 µM and the “apparent KD of MS2 coat protein” value (input ligand: none) was 1.61 µM.

Consider “GGUGGGUUACUACCCACACAUGAGGAUCACCCAUGUAUUGGGAAGGAUAUGGUGCCUAUUUGGUACCAGAAGGUCCUGAAGGUG [SS-NG3-LRO17] (Eterna round: R96, puzzle: Same State NG 3)”, for which the “apparent KD of MS2 coat protein” value is, setting by setting: (input ligand: FMN 200 uM) 0.98 µM; under setting [1], 0.571 µM; (input ligand: none) 1.77 µM.

Consider “GGUGGGUUACUACCCACACAUGAGGAUCACCCAUGUUUUGGGAAGGAUAUGGUACCUAUUUGGUACCAGAAGGUCCUGUUGGUG [SS-NG3-LRO14] (Eterna round: R96, puzzle: Same State NG 3)”, for which the “apparent KD of MS2 coat protein” value is 0.702 µM (input ligand: FMN 200 uM), 0.445 µM under setting [1] and 1.02 µM (input ligand: none).

For the sequence “GGUUUAGUCGAUUGCCGUUGCACUCGAAAACAUGAGGAUCACCCAUGUUUGGGACAAGCUUUGCUCCUCGUCUUUCC [Sous] (puzzle: Sensor for hsa-mir-208a)”, the “apparent KD of MS2 coat protein” value runs as follows: under setting [2], 0.24 µM; under setting [3], 0.0671 µM; under setting [4], 0.453 µM.

Turning to “GUAAAACAUGAGGAUCACCCAUGUAAUAUAAUGGGAGGAUAUCUGAUUUAAUUUAAUUUAAGAGAAGGCCUAAAUG [Mat - Same State 1 - Mod of Eli - D57] (puzzle: Same State 1)”, the “apparent KD of MS2 coat protein” value is, setting by setting: under setting [2], 0.0396 µM; under setting [3], 0.268 µM; under setting [4], 0.372 µM.

Turning to “GUAAUAAAGGAAGGAUAUGGGUAAACGGGAAUCCCAGAAGGUCCACAUGAGGAUCACCCAUGUGGUCCCGAAACCACGGGACCG [Enbive] (Eterna round: R96, puzzle: Same State NG 1)”, the “apparent KD of MS2 coat protein” value reads like this: (input ligand: FMN 200 uM) 0.0842 µM; under setting [1], 0.0605 µM; (input ligand: none) 0.075 µM.

In the case of “GUAAUAAUGUAAGGAUAUACAUGAGGAUUUCUCGUAGAAGGUACAAGACAUGAGGAUCACCCAUGUGUCGCUCCGUAGAGCGUA [Mat - Same State NG 1 - JL mod - D15] (Eterna round: R96, puzzle: Same State NG 1)”, the “apparent KD of MS2 coat protein” value is 0.297 µM (input ligand: FMN 200 uM), 0.168 µM under setting [1] and 0.448 µM (input ligand: none).

Consider “GUACAGAUCAGAGGAUAUCACGUCGAAUAGACGUGAGAAGGCUGAUCACACAUGAAUAUUAGUACAUGAGGAUCACCCAUGUAC [SSNG1/15-A1] (Eterna round: R96, puzzle: Same State NG 1)”, for which the “apparent KD of MS2 coat protein” value runs as follows: (input ligand: FMN 200 uM) 0.0145 µM; under setting [1], 0.0128 µM; (input ligand: none) 0.018 µM.

Take “GUACUACAUGAGGAUCACCCAUGUACAAAGGUACGAGGAUAUGCAUGUACGAAAGUAUAUGCAGAAGGCGUAGUAC [Pin2Pin #2] (puzzle: Same State 1)”: the “apparent KD of MS2 coat protein” value under setting [3] stood at 0.0233 µM.

With “GUAGCAUACCGAGGAUAUUCAUAUUAACAUGAGGAUCACCCAUGUUUAGGUCGAUUACGACCUUGGGAGAAGGCGGAAUGCUAC [Xeonanis - 20 Mod33] (Eterna round: R96, puzzle: Same State NG 2)”, the “apparent KD of MS2 coat protein” value (input ligand: FMN 200 uM) is 0.0123 µM, the “apparent KD of MS2 coat protein” value under setting [1] was 0.0154 µM and the “apparent KD of MS2 coat protein” value (input ligand: none) was determined as 0.0255 µM.

For “GUAGCAUACCGAGGAUAUUCAUAUUAUACAUGAGGAUCACCCAUGUGGCCACAUUAGUGGCCUUGGGAGAAGGCGGAAUGCUAC [Xeonanis - 20 Mod37] (Eterna round: R96, puzzle: Same State NG 2)”, the “apparent KD of MS2 coat protein” value runs as follows: (input ligand: FMN 200 uM) 0.0992 µM; under setting [1], 0.29 µM; (input ligand: none) 0.669 µM.

Regarding “GUAGUACAUGAGGAUCACCCAUGUUUCCUCCAAGAGUUCUUCGAGGAUAUGUCAUGGAAUCCACAAUAGAAGGCGGAGAACCAA [Eternabot solution 39] (Eterna round: R96, puzzle: Same State NG 3)”, the “apparent KD of MS2 coat protein” value runs as follows: (input ligand: FMN 200 uM) 0.403 µM; under setting [1], 0.526 µM; (input ligand: none) 0.462 µM.

As for “GUGCGAGUGCCACAGGAUAUACGUGGAUCGACAUGAGGAUCACCCAUGUAUAUCCUAAUAAUUGCGUAGAAGGGUGGUCAGUCGG [Inzage] (Eterna round: R96, puzzle: Same State 2)”, the “apparent KD of MS2 coat protein” value is 0.164 µM (input ligand: FMN 200 uM), 0.313 µM under setting [1] and 0.478 µM (input ligand: none).
